Measured values taken from article PMC12224427, “The non-metabolic function of 6PGD coordinates CCNA2 and HMGA2 expression to drive colorectal cancer progression and drug response” (Journal of Experimental & Clinical Cancer Research : CR, 2025).

Target: T1, recombinant 6PGD (re6PGD) (UniProt P52209 1-483)
T1 construct: 6-phosphogluconate dehydrogenase (6PGD), wild type; source: bacterially expressed recombinant
T1 sequence (looked up): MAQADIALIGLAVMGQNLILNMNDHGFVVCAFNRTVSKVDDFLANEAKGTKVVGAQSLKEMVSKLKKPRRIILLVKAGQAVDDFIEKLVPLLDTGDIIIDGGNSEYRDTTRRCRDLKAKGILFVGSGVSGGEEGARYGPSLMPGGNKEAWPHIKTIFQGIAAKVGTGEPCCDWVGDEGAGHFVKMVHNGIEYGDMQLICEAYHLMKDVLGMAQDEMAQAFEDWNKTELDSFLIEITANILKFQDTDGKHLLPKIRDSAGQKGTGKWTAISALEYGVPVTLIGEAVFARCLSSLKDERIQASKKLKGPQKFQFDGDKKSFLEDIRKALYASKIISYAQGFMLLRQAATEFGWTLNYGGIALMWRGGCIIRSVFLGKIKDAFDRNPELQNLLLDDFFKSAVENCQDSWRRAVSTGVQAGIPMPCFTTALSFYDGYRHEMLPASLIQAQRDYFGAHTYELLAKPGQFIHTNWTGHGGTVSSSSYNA
Experiment: MST; microscale thermophoresis of 6PGD and ALKBH5 (Fig. S5A); conditions not shown
Details: both partners purified

Kd: 1.63 µM
B1: recombinant ALKBH5 (reALKBH5; aa:66–292) (domain or fragment, UniProt Q6P6C2 66-292, looked up)
chain: PERSDYEEQQLQKEEEARKVKSGIRQMRLFSQDECAKIEARIDEVVSRAEKGLYNEHTVDRAPLRNKYFFGEGYTYGAQLQKRGPGQERLYPPGDVDEIPEWVHQLVIQKLVEHRVIPEGFVNSAVINDYQPGGCIVSHVDPIHIFERPIVSVSFFSDSALCFGCKFQFKPIRVSEPVLSLPVRRGSVTVLSGYAADEITHCIRPQDIKERRAVIILRKTRLDAPRL
notes: ALKBH5, residues 66-292; The range 66-292 is printed where the in vitro methylation assay is told; source: recombinant
